The test system of data set [1] is CC(=O)SCCNC(=O)CCNC(=O)[C@H](O)C(C)(C)COP(=O)(O)OP(=O)(O)OC[C@H]1O[C@@H](n2cnc3c(N)ncnc32)[C@H](O)[C@@H]1OP(=O)(O)O. Put plainly: HPLC, Hanes-Woolf. The data set is classed as biochemical, Diaporthe amygdali. The following applies: 203 µM 14 (dideacetyl-FC A), 50 mM Tris-HCl pH 8.5, 35°C.
For data set [2], the system named is O=c1ccn([C@@H]2O[C@H](CO[P@@](=O)(O)O[P@@](=O)(O)O[C@H]3O[C@H](CO)[C@@H](O)[C@H](O)[C@H]3O)[C@@H](O)[C@H]2O)c(=O)[nH]1. Kind of data set: HPLC, Hanes-Woolf. The data set is classed as biochemical, Diaporthe amygdali. The following applies: 0.1 mM 9 (FC H aglycon), 50 mM MES pH 6.0, 30°C.

Drawing on article PMC3411640, “Molecular Breeding of a Fungus Producing a Precursor Diterpene Suitable for Semi-Synthesis by Dissection of the Biosynthetic Machinery” (PLoS ONE, 2012), this text covers Km and kcat for 2 substances.

What is called Km is the concentration of substrate that gives half-maximal velocity.

Turning to “acetyltransferase-2 (Orf12) (Diaporthe amygdali)”, in data set [1], the Km was determined as 63 ± 6.6 µM and the kcat is given as 3.5×10^−3±0.17×10^−3 S^−1.
For the substance “glycosyltransferase (Orf6) (Diaporthe amygdali)”, in data set [2], the Km worked out at 520 ± 46 µM and the kcat is given as 0.40±0.044 S^−1.
